Results published in article PMC6981973.

Target: transferrin receptor (TfR) (human (endogenous in Caco-2)) (UniProt P02786)
Sequence (P02786 whole entry): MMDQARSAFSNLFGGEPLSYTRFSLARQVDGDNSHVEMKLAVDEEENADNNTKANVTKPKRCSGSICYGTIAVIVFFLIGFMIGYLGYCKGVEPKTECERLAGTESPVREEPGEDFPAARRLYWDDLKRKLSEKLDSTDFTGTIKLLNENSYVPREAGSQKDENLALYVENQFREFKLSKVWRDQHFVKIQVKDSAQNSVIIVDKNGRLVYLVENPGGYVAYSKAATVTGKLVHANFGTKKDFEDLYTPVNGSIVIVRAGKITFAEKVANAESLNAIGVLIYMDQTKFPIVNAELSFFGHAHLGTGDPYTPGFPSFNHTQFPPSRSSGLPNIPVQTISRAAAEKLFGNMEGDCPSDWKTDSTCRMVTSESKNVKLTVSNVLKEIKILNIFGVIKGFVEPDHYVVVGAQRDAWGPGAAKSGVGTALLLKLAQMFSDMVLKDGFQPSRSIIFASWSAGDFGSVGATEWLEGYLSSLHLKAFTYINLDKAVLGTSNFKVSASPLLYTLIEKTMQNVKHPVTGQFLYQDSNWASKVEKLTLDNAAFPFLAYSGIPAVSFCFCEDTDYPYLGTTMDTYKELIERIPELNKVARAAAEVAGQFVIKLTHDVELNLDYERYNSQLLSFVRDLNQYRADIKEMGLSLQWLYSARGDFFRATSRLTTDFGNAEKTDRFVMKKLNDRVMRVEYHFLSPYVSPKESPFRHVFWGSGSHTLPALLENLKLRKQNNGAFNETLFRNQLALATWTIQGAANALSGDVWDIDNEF

Chain of rFIX-Tf/Dithi (P02787 whole entry, looked up): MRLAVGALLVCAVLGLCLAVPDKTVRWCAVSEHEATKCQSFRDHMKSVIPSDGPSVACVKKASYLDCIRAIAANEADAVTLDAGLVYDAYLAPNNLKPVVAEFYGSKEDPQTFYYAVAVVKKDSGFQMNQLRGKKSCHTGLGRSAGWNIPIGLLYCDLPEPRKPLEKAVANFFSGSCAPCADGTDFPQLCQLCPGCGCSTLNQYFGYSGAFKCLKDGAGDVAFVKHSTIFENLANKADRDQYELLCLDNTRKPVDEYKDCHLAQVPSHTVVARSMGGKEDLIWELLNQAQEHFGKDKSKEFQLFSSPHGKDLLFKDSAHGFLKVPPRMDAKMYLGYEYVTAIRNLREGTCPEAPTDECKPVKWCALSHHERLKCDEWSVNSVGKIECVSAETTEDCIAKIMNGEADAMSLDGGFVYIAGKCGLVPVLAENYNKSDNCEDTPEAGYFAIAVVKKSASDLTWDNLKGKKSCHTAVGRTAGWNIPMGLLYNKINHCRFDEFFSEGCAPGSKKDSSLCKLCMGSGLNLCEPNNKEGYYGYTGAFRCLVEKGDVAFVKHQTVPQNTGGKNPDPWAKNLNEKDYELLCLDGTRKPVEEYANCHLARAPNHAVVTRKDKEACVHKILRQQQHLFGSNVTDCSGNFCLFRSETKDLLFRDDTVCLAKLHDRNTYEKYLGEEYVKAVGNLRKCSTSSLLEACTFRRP
Chain of rFIX-Tf/Dithi (P00740 whole entry, looked up): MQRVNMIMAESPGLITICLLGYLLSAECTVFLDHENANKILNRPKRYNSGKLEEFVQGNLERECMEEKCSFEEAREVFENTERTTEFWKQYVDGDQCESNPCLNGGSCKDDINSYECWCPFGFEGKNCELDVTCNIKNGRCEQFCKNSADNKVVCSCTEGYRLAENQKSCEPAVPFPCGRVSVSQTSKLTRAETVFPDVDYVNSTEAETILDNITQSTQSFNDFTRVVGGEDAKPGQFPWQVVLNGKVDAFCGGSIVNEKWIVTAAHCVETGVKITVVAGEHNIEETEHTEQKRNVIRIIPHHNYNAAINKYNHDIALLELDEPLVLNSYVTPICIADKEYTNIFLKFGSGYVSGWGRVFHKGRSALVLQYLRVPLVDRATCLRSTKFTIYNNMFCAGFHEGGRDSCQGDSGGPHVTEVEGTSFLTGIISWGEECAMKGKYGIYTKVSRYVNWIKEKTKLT

Row | specific (total minus nonspecific with 100-fold excess Tf) apical-to-basolateral transcytosis across Caco-2 monolayers, about 100 mIU/mL apical, 2, 4 and 6 h; protein transport rate at 6 h | specific apical-to-basolateral transcytosis across Caco-2 monolayers at 6 h, fold over BeneFIX | specific apical-to-basolateral transcytosis across Caco-2 monolayers, fold over FIX-Tf (LE dipeptide linker) | Substance
1 | 0.024% | – | – | BeneFIX^®, a marketed coagulation factor IX (recombinant) product (enzyme)
2 | – | 4.4 fold | 1.5 fold | rFIX-Tf/Dithi (from UniProt P00740 47-461; P02787 20-698)
